Measured values as given in paper PMC6927069.

Target: latent myostatin
Assay: BLI
Conditions: second pH 7.4

dissociation rate (koff), fold lower at pH 7.4 than at pH 5.0: approximately 20-fold
Substance: SRK-015
